Experiment [1] concerns the target TraWF in the BACTH-TM vectors (E. coli (F-plasmid)) (UniProt P18472). Description: two-hybrid.
The target of experiment [2] is TraBN with T18 or T25 at its N-terminus (BACTH) (Neisseria gonorrhoeae MS11) (UniProt Q5EPB9). The experiment can be described thus: two-hybrid.

With “TraVF in the BACTH-TM vectors (from UniProt P41069 19-171) (natural protein)”, in experiment [1], the β-galactosidase signal over background (times above the background level) came out at 8.

In experiment [2], “TrbCN in the BACTH-TM vectors (natural protein)” showed a β-galactosidase signal over background (times above the background level) of 4.

(Values after PMC8015186.)
